Assay [1] concerns the target T1, KISS ME DEADLY 1 (KMD1) (Arabidopsis, UniProt Q9M8L2 1-354).
T1 construct: Full-length protein; also called At1g80440
T1 sequence (looked up): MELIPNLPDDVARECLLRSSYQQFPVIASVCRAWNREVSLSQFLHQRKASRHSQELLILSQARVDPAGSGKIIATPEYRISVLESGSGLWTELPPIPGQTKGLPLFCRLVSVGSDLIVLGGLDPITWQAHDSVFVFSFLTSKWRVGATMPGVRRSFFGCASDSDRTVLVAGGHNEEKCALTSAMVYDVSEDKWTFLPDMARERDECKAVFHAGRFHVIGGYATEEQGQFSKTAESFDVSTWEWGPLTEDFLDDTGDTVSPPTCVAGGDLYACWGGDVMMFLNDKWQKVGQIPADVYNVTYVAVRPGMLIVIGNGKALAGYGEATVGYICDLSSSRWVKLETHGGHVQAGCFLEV
The experiment in a line: yeast two-hybrid (LexA-KMD bait, X-gal). From the text:
(§1) The DUPLEX-A™ system (OriGene Technologies) was used for yeast two-hybrid analysis of interactions. KMD cDNAs were cloned into the pGilda bait vector, which produces an in-frame fusion with the LexA DNA-binding domain. Type-B ARR coding sequences were cloned into the pJG4-5 prey vector, which produces a B42 activation domain. The yeast strain EGY48 (MATa, trp1, his3, ura3, leu2::6 LexAop-LEU2) that contains the lacZ reporter plasmid pSH18-34 was transformed with the appropriate “bait” and “prey” plasmids. Interactions were tested on 5-bromo-4-chloro-3-indolyl-p-D-galactopyranoside (X-gal) medium (Ryu, et al. (2005) Cell 120(3): 395-406).
(§2) The KMD proteins also interacted with ARR20 (type-B ARR subfamily-3), but not with ARR19 (subfamily-2) and ARR21 (subfamily-3). […] All four KMD proteins interacted with both ARR1 and ARR12 in a BiFC assay. Strong fluorescence was detected in the nuclei of cells, consistent with the subcellular localization of the type-B ARRs (Hwang & Sheen J (2001) Nature 413(6854):383-389; Mason, et al. (2004) Plant Physiol. 135(2):927-937).

Assay [2] concerns the target T2, KISS ME DEADLY 2 (KMD2) (Arabidopsis, UniProt Q9LMR5 1-359).
T2 construct: Full-length protein; LexA fusion in yeast two-hybrid, YFP^N or YFP^C fusion in BiFC; also called At1g15670
T2 sequence (looked up): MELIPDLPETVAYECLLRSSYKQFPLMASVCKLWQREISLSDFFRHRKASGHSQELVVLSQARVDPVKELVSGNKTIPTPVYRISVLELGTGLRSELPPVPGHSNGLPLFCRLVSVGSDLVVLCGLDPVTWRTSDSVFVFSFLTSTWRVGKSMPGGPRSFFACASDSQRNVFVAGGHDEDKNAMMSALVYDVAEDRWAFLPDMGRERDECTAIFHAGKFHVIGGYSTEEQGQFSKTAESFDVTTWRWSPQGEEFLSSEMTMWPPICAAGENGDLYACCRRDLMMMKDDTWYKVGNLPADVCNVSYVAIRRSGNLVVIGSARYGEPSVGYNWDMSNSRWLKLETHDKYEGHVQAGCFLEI
Nature of the assay: yeast two-hybrid (LexA-KMD bait, X-gal).
Text: as §1, §2

Assay [3] concerns the target T3, KISS ME DEADLY 3 (KMD3) (Arabidopsis, UniProt O80582 1-409).
T3 construct: Full-length protein; LexA fusion in yeast two-hybrid, YFP^N or YFP^C fusion in BiFC; also called At2g44130
T3 sequence (looked up): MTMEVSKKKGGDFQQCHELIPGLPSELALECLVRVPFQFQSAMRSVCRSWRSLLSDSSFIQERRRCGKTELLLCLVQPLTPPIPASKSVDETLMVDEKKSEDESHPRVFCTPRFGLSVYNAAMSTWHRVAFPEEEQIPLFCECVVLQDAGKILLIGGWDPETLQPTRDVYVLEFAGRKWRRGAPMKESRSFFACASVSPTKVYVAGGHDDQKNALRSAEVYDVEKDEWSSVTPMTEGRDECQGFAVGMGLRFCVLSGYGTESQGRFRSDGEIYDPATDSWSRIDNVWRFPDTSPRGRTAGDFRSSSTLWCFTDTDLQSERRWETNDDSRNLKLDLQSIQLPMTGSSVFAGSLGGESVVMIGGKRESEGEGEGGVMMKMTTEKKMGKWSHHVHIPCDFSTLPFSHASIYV
Nature of the assay: yeast two-hybrid (LexA-KMD bait, X-gal).
Text: as §1, §2

Assay [4] concerns the target T4, KISS ME DEADLY 4 (KMD4) (Arabidopsis, UniProt Q9M1Y1 1-418).
T4 construct: Full-length protein; LexA fusion in yeast two-hybrid, YFP^N or YFP^C fusion in BiFC; also called At3g59940
T4 sequence (looked up): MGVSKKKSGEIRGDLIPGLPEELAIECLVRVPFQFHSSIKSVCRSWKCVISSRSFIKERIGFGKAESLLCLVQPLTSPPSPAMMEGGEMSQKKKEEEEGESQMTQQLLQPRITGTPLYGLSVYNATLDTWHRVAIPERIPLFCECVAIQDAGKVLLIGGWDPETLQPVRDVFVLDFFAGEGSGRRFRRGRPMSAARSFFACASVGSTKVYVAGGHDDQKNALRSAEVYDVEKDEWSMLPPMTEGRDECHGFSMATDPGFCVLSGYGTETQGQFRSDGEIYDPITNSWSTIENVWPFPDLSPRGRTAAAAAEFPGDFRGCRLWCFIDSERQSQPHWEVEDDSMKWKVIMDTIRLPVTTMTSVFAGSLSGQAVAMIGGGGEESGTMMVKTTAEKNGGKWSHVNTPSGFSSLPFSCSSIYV
Nature of the assay: yeast two-hybrid (LexA-KMD bait, X-gal).
Text: as §1, §2

The target in assay [5] is T5, ARR12 (Arabidopsis, UniProt P62598 1-596).
T5 construct: YFP^N or YFP^C fusion of the full-length cDNA in BiFC; also called AtARR12; type-B response regulator AtARR12
T5 sequence (looked up): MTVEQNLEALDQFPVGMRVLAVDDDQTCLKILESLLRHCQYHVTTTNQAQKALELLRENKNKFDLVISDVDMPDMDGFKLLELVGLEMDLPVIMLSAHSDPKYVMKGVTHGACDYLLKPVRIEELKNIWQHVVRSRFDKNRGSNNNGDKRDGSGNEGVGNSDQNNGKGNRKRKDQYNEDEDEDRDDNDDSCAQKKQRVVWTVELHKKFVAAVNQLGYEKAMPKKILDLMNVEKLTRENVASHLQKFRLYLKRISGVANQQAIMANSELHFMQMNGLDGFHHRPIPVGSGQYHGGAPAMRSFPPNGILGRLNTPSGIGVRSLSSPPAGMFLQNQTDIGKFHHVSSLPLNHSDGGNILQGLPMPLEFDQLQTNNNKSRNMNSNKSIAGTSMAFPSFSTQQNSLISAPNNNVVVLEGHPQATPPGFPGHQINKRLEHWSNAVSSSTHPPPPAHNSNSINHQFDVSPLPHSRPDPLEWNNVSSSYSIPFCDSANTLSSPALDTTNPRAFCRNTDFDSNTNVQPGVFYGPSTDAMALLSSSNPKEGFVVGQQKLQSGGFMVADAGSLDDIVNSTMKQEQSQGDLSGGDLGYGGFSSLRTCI
The experiment in a line: yeast two-hybrid.

Assay [6] concerns the target T1, KISS ME DEADLY 1 (KMD1). The experiment in a line: BiFC (YFP^N/YFP^C fusions) in Arabidopsis protoplasts. The protocol:
(§3) Arabidopsis protoplasts were transfected as described (Kovtun, et al. (2000) Proc. Natl. Acad. Sci. USA 97(6):2940-2945) and incubated overnight at 22° C. under dim light (5 […]) and examined with an Axioplan2 fluorescent microscope (Carl Zeiss).
(§4) KMD proteins contain a conserved amino-terminal F-box motif. To determine if KMDs function as canonical F-box proteins, their interactions with known components of the Arabidopsis SCF complex were examined.

The target in assay [7] is T2, KISS ME DEADLY 2 (KMD2). Described as above. On the procedure: as §3, §4
Assay [8] concerns the target T3, KISS ME DEADLY 3 (KMD3). The description is as above. The protocol:
as §3, §4

The target in assay [9] is T4, KISS ME DEADLY 4 (KMD4). The assay is described as above. The protocol:
as §3, §4

Assay [10] concerns the target T1, KISS ME DEADLY 1 (KMD1). Nature of the assay: BiFC with ARR fragments; the weaker of the two interactions.
Assay [11] has as its target T5, ARR12. The experiment in a line: yeast two-hybrid, positive control.

B1: ARR7 (type-A ARR) (other, Arabidopsis, UniProt Q9ZWS7 1-206, looked up)
chain: MAVGEVMRMEIPAGGDLTVTTPELHVLAVDDSIVDRKVIERLLRISSCKVTTVESGTRALQYLGLDGGKGASNLKDLKVNLIVTDYSMPGLSGYDLLKKIKESSAFREVPVVIMSSENILPRIQECLKEGAEEFLLKPVKLADVKRIKQLIMRNEAEECKILSHSNKRKLQEDSDTSSSSHDDTSIKDSSCSKRMKSESENLFSLL
notes: Prey in yeast two-hybrid
Turning to B1, the binding result in assay [1], in assay [2], in assay [3] and in assay [4] was “no binding” throughout.

B2: OsKMD2 (other)
chain: MGYNELIPGLPEEVARECLIRVGFDQLPAVRRISRQWKAEVESPAYNRLRKAEGLARPALALVQARRELAEAGPAADKQSSAGGVPGNSYRMVLLDPAEGRWTPLPEVGGASGSLPLFCQVAAVDGGVEGRKRLVVVGGWDPETWAPTDSVLVYDFLTGAWRRGAAMPGPRRSFFACAAVGGKVFVAGGHDEEKNALRSALAYDPDADAWAALPDMAEERDEPRGLCVDGKFLVVGGYPTPAQGRFVGSAEWFDPATSTWSAVQEGFVDDGACPRTCSAAPEAGDRMYMLRDGHLVARHGAISSAPAAWRPVAPVPEDARTAAAVSVIPDGRVVVIGSDCHGGDQTVYTLREEAGKPASWARAPAPPEFSGHVQAACLLEI
notes: Tested in yeast two-hybrid; The fusion partner (LexA bait as for the Arabidopsis KMDs) is not restated for OsKMD2; also called rice KMD2; Os06g39370
Consider B2, for which the binding result in assay [5] is “binds”.

B3: ASK1, an Arabidopsis Skp1 protein of the SCF complex (other, UniProt Q39255 1-160, looked up)
chain: MSAKKIVLKSSDGESFEVEEAVALESQTIAHMVEDDCVDNGVPLPNVTSKILAKVIEYCKRHVEAAASKAEAVEGAATSDDDLKAWDADFMKIDQATLFELILAANYLNIKNLLDLTCQTVADMIKGKTPEEIRTTFNIKNDFTPEEEEEVRRENQWAFE
notes: Full-length cDNA fused to YFP^N or YFP^C for BiFC
Regarding B3, the binding result in assay [6], in assay [7], in assay [8] and in [9] was “binds” throughout.

B4: ARR12 (1-134) (other, Arabidopsis, UniProt P62598 1-134, looked up)
chain: MTVEQNLEALDQFPVGMRVLAVDDDQTCLKILESLLRHCQYHVTTTNQAQKALELLRENKNKFDLVISDVDMPDMDGFKLLELVGLEMDLPVIMLSAHSDPKYVMKGVTHGACDYLLKPVRIEELKNIWQHVVR
notes: range 1-134; Fused to a YFP fragment for BiFC; also called receiver domain of ARR12
Consider B4, for which the binding result in assay [10] was “binds”.

B5: ARR4 (type-A ARR) (other, Arabidopsis, UniProt O82798 1-259, looked up)
chain: MARDGGVSCLRRSEMMSVGGIGGIESAPLDLDEVHVLAVDDSLVDRIVIERLLRITSCKVTAVDSGWRALEFLGLDNEKASAEFDRLKVDLIITDYCMPGMTGYELLKKIKESSNFREVPVVIMSSENVLTRIDRCLEEGAQDFLLKPVKLADVKRLRSHLTKDVKLSNGNKRKLPEDSSSVNSSLPPPSPPLTISPESSPPLTVSTESSDSSPPLSPVEIFSTSPLSSPIDDEDDDVLTSSSEESPIRRQKMRSPGLD
notes: Prey in yeast two-hybrid
Take B5: the binding result in assay [1], in assay [2], in [3] and in assay [4] was “no binding” each time.

B6: phosphotransfer protein AtAHP2 (other, Arabidopsis, UniProt Q9ZNV8 1-156, looked up)
chain: MDALIAQLQRQFRDYTISLYQQGFLDDQFTELKKLQDDGSPDFVSEVLSLFFEDCVKLISNMARALDTTGTVDFSQVGASVHQLKGSSSSVGAKRVKTLCVSFKECCEAKNYEGCVRCLQQVDIEYKALKTKLQDMFNLEKQIIQAGGIVPQVDIN
notes: Positive control in the yeast two-hybrid test with AtARR12; construct not described
Take B6: the binding result in assay [11] is “binds”.

Values taken from patent US20160289698A1 (TRUSTEES OF DARTMOUTH COLLEGE, published 2016).
